Reference: the supplement of paper PMC11316812
± gives the standard deviation of the averaged measurements.

Key:
hTERT-HMEC = test: percentage of EdU-negative (G0-arrested) nuclei per well, 72 h; higher = more G0 arrest; details: reference: sequence is the full UniProt precursor, the tested protein was the secreted form or ectodomain
MCF7 = test: as above; details: reference: sequence is the full UniProt precursor, the tested protein was the secreted form or ectodomain
[1] = protein concentration 0.02657 µM
[2] = protein concentration 0.2657 µM
[3] = protein concentration 0.0357143 µM
[4] = protein concentration 0.357143 µM
[5] = protein concentration 0.01925 µM
[6] = protein concentration 0.1925 µM
[7] = protein concentration 0.03125 µM
[8] = protein concentration 0.3125 µM
[9] = protein concentration 0.0125714 µM
[10] = protein concentration 0.125714 µM
[11] = protein concentration 0.0225 µM
[12] = protein concentration 0.0257143 µM
[13] = protein concentration 0.257143 µM
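Further: secreted proteins added to cultured cells, EdU pulse at the end, nuclei found by Hoechst imaging, EdU status from nuclear versus surrounding ring intensity ratio, PBS as neutral control.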

“MFTIKLLLFIVPLVISSRIDQDNSSFDSLSPEPKSRFAMLDDVKILANGLLQLGHGLKDFVHKTKGQINDIFQKLNIFDQSFYDLSLQTSEIKEEEKELRRTTYKLQVKNEEVKNMSLELNSKLESLLEEKILLQQKVKYLEEQLTNLIQNQPETPEHPEVTSLKTFVEKQDNSIKDLLQTVEDQYKQLNQQHSQIKEIENQLRRTSIQEPTEISLSSKPRAPRTTPFLQLNEIRNVKHDGIPAECTTIYNRGEHTSGMYAIRPSNSQVFHVYCDVISGSPWTLIQHRIDGSQNFNETWENYKYGFGRLDGEFWLGLEKIYSIVKQSNYVLRIELEDWKDNKHYIEYSFYLGNHETNYTLHLVAITGNVPNAIPENKDLVFSTWDHKAKGHFNCPEGYSGGWWWHDECGENNLNGKYNKPRAKSKPERRRGLSWKSQNGRLYSIKSTKMLIHPTDSESFE [Q9Y5C1]” was tested, and the “percentage of EdU-negative” value (hTERT-HMEC; [1]) was 4.63 ± 0.83%, the “percentage of EdU-negative” value (hTERT-HMEC; [2]) was 6.34 ± 0.5% and the “percentage of EdU-negative” value (MCF7; [1]) was 25.5 ± 1.9%. The “percentage of EdU-negative” value (MCF7; [2]) was 25.9 ± 2.1%.

For “MELWGAYLLLCLFSLLTQVTTEPPTQKPKKIVNAKKDVVNTKMFEELKSRLDTLAQEVALLKEQQALQTVCLKGTKVHMKCFLAFTQTKTFHEASEDCISRGGTLGTPQTGSENDALYEYLRQSVGNEAEIWLGLNDMAAEGTWVDMTGARIAYKNWETEITAQPDGGKTENCAVLSGAANGKWFDKRCRDQLPYICQFGIV”, the “percentage of EdU-negative” value (hTERT-HMEC; [3]) was 5.64 ± 0.21%, the “percentage of EdU-negative” value (hTERT-HMEC; [4]) was 25.4 ± 5% and the “percentage of EdU-negative” value (MCF7; [3]) was 23.3 ± 2.7%. For the same sequence, the “percentage of EdU-negative” value (MCF7; [4]) was 26.7 ± 0.6%.

“MLCLLLTLGVALVCGVPAMDIPQTKQDLELPKLAGTWHSMAMATNNISLMATLKAPLRVHITSLLPTPEDNLEIVLHRWENNSCVEKKVLGEKTENPKKFKINYTVANEATLLDTDYDNFLFLCLQDTTTPIQSMMCQYLARVLVEDDEIMQGFIRAFRPLPRHLWYLLDLKQMEEPCRF” was tested, and the “percentage of EdU-negative” value (hTERT-HMEC; [3]) was 5.01 ± 0.051%, the “percentage of EdU-negative” value (hTERT-HMEC; [4]) was 5.65 ± 0.33% and the “percentage of EdU-negative” value (MCF7; [3]) was 24.5 ± 2.6%. For the same sequence, the “percentage of EdU-negative” value (MCF7; [4]) was 23 ± 1.3%.

In the case of “MRPVSVWQWSPWGLLLCLLCSSCLGSPSPSTGPEKKAGSQGLRFRLAGFPRKPYEGRVEIQRAGEWGTICDDDFTLQAAHILCRELGFTEATGWTHSAKYGPGTGRIWLDNLSCSGTEQSVTECASRGWGNSDCTHDEDAGVICKDQRLPGFSDSNVIEVEHHLQVEEVRIRPAVGWGRRPLPVTEGLVEVRLPDGWSQVCDKGWSAHNSHVVCGMLGFPSEKRVNAAFYRLLAQRQQHSFGLHGVACVGTEAHLSLCSLEFYRANDTARCPGGGPAVVSCVPGPVYAASSGQKKQQQSKPQGEARVRLKGGAHPGEGRVEVLKASTWGTVCDRKWDLHAASVVCRELGFGSAREALSGARMGQGMGAIHLSEVRCSGQELSLWKCPHKNITAEDCSHSQDAGVRCNLPYTGAETRIRLSGGRSQHEGRVEVQIGGPGPLRWGLICGDDWGTLEAMVACRQLGLGYANHGLQETWYWDSGNITEVVMSGVRCTGTELSLDQCAHHGTHITCKRTGTRFTAGVICSETASDLLLHSALVQETAYIEDRPLHMLYCAAEENCLASSARSANWPYGHRRLLRFSSQIHNLGRADFRPKAGRHSWVWHECHGHYHSMDIFTHYDILTPNGTKVAEGHKASFCLEDTECQEDVSKRYECANFGEQGITVGCWDLYRHDIDCQWIDITDVKPGNYILQVVINPNFEVAESDFTNNAMKCNCKYDGHRIWVHNCHIGDAFSEEANRRFERYPGQTSNQII”, the “percentage of EdU-negative” value (hTERT-HMEC; [5]) is reported as 4.9 ± 0.65%, the “percentage of EdU-negative” value (hTERT-HMEC; [6]) is reported as 39.2 ± 1.2% and the “percentage of EdU-negative” value (MCF7; [5]) is reported as 25.3 ± 1.3%. For the same sequence, the “percentage of EdU-negative” value (MCF7; [6]) was 31.5 ± 2.3%.

In the case of “MKTLFLGVTLGLAAALSFTLEEEDITGTWYVKAMVVDKDFPEDRRPRKVSPVKVTALGGGNLEATFTFMREDRCIQKKILMRKTEEPGKFSAYGGRKLIYLQELPGTDDYVFYCKDQRRGGLRYMGKLVGRNPNTNLEALEEFKKLVQHKGLSEEDIFMPLQTGSCVLEH [Q9NY56]”, the “percentage of EdU-negative” value (hTERT-HMEC; [7]) is reported as 5 ± 0.88%, the “percentage of EdU-negative” value (hTERT-HMEC; [8]) is reported as 6.83 ± 0.95% and the “percentage of EdU-negative” value (MCF7; [7]) is reported as 25.1 ± 0.74%. The “percentage of EdU-negative” value (MCF7; [8]) was 25.7 ± 0.44%.

With “MRENMARGPCNAPRWASLMVLVAIGTAVTAAVNPGVVVRISQKGLDYASQQGTAALQKELKRIKIPDYSDSFKIKHLGKGHYSFYSMDIREFQLPSSQISMVPNVGLKFSISNANIKISGKWKAQKRFLKMSGNFDLSIEGMSISADLKLGSNPTSGKPTITCSSCSSHINSVHVHISKSKVGWLIQLFHKKIESALRNKMNSQVCEKVTNSVSSELQPYFQTLPVMTKIDSVAGINYGLVAPPATTAETLDVQMKGEFYSENHHNPPPFAPPVMEFPAAHDRMVYLGLSDYFFNTAGLVYQEAGVLKMTLRDDMIPKESKFRLTTKFFGTFLPEVAKKFPNMKIQIHVSASTPPHLSVQPTGLTFYPAVDVQAFAVLPNSSLASLFLIGMHTTGSMEVSAESNRLVGELKLDRLLLELKHSNIGPFPVELLQDIMNYIVPILVLPRVNEKLQKGFPLPTPARVQLYNVVLQPHQNFLLFGADVVYK” the “percentage of EdU-negative” value (hTERT-HMEC; [9]) was 6.02 ± 1.5%, the “percentage of EdU-negative” value (hTERT-HMEC; [10]) was 35.1 ± 4% and the “percentage of EdU-negative” value (MCF7; [9]) was 24.5 ± 2.8%. The “percentage of EdU-negative” value (MCF7; [10]) was 29.1 ± 5%.

“MASHSGPSTSVLFLFCCLGGWLASHTLPVRLLRPSDDVQKIVEELQSLSKMLLKDVEEEKGVLVSQNYTLPCLSPDAQPPNNIHSPAIRAYLKTIRQLDNKSVIDEIIEHLDKLIFQDAPETNISVPTDTHECKRFILTISQQFSECMDLALKSLTSGAQQATT [Q6EBC2]” was tested, and the “percentage of EdU-negative” value (hTERT-HMEC; [11]) was 4.96 ± 0.56%, the “percentage of EdU-negative” value (hTERT-HMEC; protein concentration 0.225 µM) was 5.69 ± 0.58% and the “percentage of EdU-negative” value (MCF7; [11]) was 26.6 ± 1.1%. For the same sequence, the “percentage of EdU-negative” value (MCF7; protein concentration 0.225 µM) was 24.9 ± 1.8%.

With “MALVRALVCCLLTAWHCRSGLGLPVAPAGGRNPPPAIGQFWHVTDLHLDPTYHITDDHTKVCASSKGANASNPGPFGDVLCDSPYQLILSAFDFIKNSGQEASFMIWTGDSPPHVPVPELSTDTVINVITNMTTTIQSLFPNLQVFPALGNHDYWPQDQLPVVTSKVYNAVANLWKPWLDEEAISTLRKGGFYSQKVTTNPNLRIISLNTNLYYGPNIMTLNKTDPANQFEWLESTLNNSQQNKEKVYIIAHVPVGYLPSSQNITAMREYYNEKLIDIFQKYSDVIAGQFYGHTHRDSIMVLSDKKGSPVNSLFVAPAVTPVKSVLEKQTNNPGIRLFQYDPRDYKLLDMLQYYLNLTEANLKGESIWKLEYILTQTYDIEDLQPESLYGLAKQFTILDSKQFIKYYNYFFVSYDSSVTCDKTCKAFQICAIMNLDNISYADCLKQLYIKHNY” the “percentage of EdU-negative” value (hTERT-HMEC; [5]) was 4.69 ± 0.32%, the “percentage of EdU-negative” value (hTERT-HMEC; [6]) was 15.5 ± 1.9% and the “percentage of EdU-negative” value (MCF7; [5]) was 26.4 ± 2.1%. For the same sequence, the “percentage of EdU-negative” value (MCF7; [6]) was 28.3 ± 3.7%.

For “MLPLLLLPLLWGGSLQEKPVYELQVQKSVTVQEGLCVLVPCSFSYPWRSWYSSPPLYVYWFRDGEIPYYAEVVATNNPDRRVKPETQGRFRLLGDVQKKNCSLSIGDARMEDTGSYFFRVERGRDVKYSYQQNKLNLEVTALIEKPDIHFLEPLESGRPTRLSCSLPGSCEAGPPLTFSWTGNALSPLDPETTRSSELTLTPRPEDHGTNLTCQMKRQGAQVTTERTVQLNVSYAPQTITIFRNGIALEILQNTSYLPVLEGQALRLLCDAPSNPPAHLSWFQGSPALNATPISNTGILELRRVRSAEEGGFTCRAQHPLGFLQIFLNLSVYSLPQLLGPSCSWEAEGLHCRCSFRARPAPSLCWRLEEKPLEGNSSQGSFKVNSSSAGPWANSSLILHGGLSSDLKVSCKAWNIYGSQSGSVLLLQGRSNLGTGVVPAALGGAGVMALLCICLCLIFFLIVKARRKQAAGRPEKMDDEDPIMGTITSGSRKKPWPDSPGDQASPPGDAPPLEEQKELHYASLSFSEMKSREPKDQEAPSTTEYSEIKTSK”, the “percentage of EdU-negative” value (hTERT-HMEC; [11]) was 5.12 ± 0.15%, the “percentage of EdU-negative” value (hTERT-HMEC; protein concentration 0.225 µM) was 5.64 ± 1% and the “percentage of EdU-negative” value (MCF7; [11]) was 25 ± 0.77%. For the same sequence, the “percentage of EdU-negative” value (MCF7; protein concentration 0.225 µM) was 29.26 ± 0.077%.

With “MQRVSGLLSWTLSRVLWLSGLSEPGAARQPRIMEEKALEVYDLIRTIRDPEKPNTLEELEVVSESCVEVQEINEEEYLVIIRFTPTVPHCSLATLIGLCLRVKLQRCLPFKHKLEIYISEGTHSTEEDINKQINDKERVAAAMENPNLREIVEQCVLEPD [Q9H5X1]” the “percentage of EdU-negative” value (hTERT-HMEC; [11]) was 5.26 ± 0.84%, the “percentage of EdU-negative” value (hTERT-HMEC; protein concentration 0.225 µM) was 5.56 ± 0.12% and the “percentage of EdU-negative” value (MCF7; [11]) was 24.6 ± 0.36%. The “percentage of EdU-negative” value (MCF7; protein concentration 0.225 µM) was 26.4 ± 0.66%.

With “MEESVVRPSVFVVDGQTDIPFTRLGRSHRRQSCSVARVGLGLLLLLMGAGLAVQGWFLLQLHWRLGEMVTRLPDGPAGSWEQLIQERRSHEVNPAAHLTGANSSLTGSGGPLLWETQLGLAFLRGLSYHDGALVVTKAGYYYIYSKVQLGGVGCPLGLASTITHGLYKRTPRYPEELELLVSQQSPCGRATSSSRVWWDSSFLGGVVHLEAGEKVVVRVLDERLVRLRDGTRSYFGAFMV” the “percentage of EdU-negative” value (hTERT-HMEC; protein concentration 0.012 µM) was 6.38 ± 0.16%, the “percentage of EdU-negative” value (hTERT-HMEC; protein concentration 0.12 µM) was 15.2 ± 1.9% and the “percentage of EdU-negative” value (MCF7; protein concentration 0.012 µM) was 23.7 ± 1.9%. For the same sequence, the “percentage of EdU-negative” value (MCF7; protein concentration 0.12 µM) was 25.5 ± 0.62%.

With “MKKSGVLFLLGIILLVLIGVQGTPVVRKGRCSCISTNQGTIHLQSLKDLKQFAPSPSCEKIEIIATLKNGVQTCLNPDSADVKELIKKWEKQVSQKKKQKNGKKHQKKKVLKVRKSQRSRQKKTT” the “percentage of EdU-negative” value (hTERT-HMEC; [12]) was 4.62 ± 0.47%, the “percentage of EdU-negative” value (hTERT-HMEC; [13]) was 6.18 ± 1.4% and the “percentage of EdU-negative” value (MCF7; [12]) was 24.8 ± 0.99%. For the same sequence, the “percentage of EdU-negative” value (MCF7; [13]) was 27.7 ± 2.3%.

With “MAKMNLSSYILILTFSLFSQGILLSASKSIRNLDDDMVFNTFRLGKGFQKEDTAEKSVIAPSLEQYKNDESSFMNEEENKVSKNTGSKHNFLNHGLPLNLAIKPYLALKGSVAFPAENGVQNTESTQEKREIGDEENSAKFPIGRRDFDMLRCMLGRVYRPCWQV” the “percentage of EdU-negative” value (hTERT-HMEC; [11]) was 5.49 ± 0.6%, the “percentage of EdU-negative” value (hTERT-HMEC; protein concentration 0.225 µM) was 5.82 ± 0.072% and the “percentage of EdU-negative” value (MCF7; [11]) was 26 ± 2.4%. The “percentage of EdU-negative” value (MCF7; protein concentration 0.225 µM) was 26 ± 1.2%.
